Tests used:
human MSLN-R3 protein [1] = biological target: T1, human MSLN-R3 protein (human, UniProt Q13421 487-598); assay: ELISA on coated antigen, antibody 1 nM
T1 construct: also called hMSLN-R3

human MSLN-R3 protein [2] = biological target: T1, human MSLN-R3 protein; assay: ELISA on coated antigen, antibody 1 nM; remark: listed apart in the source
human MSLN-R3 protein [3] = biological target: T1, human MSLN-R3 protein; assay: ELISA on coated antigen, antibody 10 nM
human MSLN-R3 protein [4] = biological target: T1, human MSLN-R3 protein; assay: ELISA on coated antigen, antibody 10 nM; remark: listed apart in the source
human MSLN-R3 protein [5] = biological target: T1, human MSLN-R3 protein; assay: ELISA on coated antigen, antibody 0.1 nM
human MSLN-R3 protein [6] = biological target: T1, human MSLN-R3 protein; assay: ELISA on coated antigen, antibody 100 nM
human MSLN-R3 protein [7] = biological target: T1, human MSLN-R3 protein; assay: ELISA on coated antigen, antibody 0.1 nM; remark: listed apart in the source
human MSLN-R3 protein [8] = biological target: T1, human MSLN-R3 protein; assay: ELISA on coated antigen, antibody 100 nM; remark: listed apart in the source
human MSLN-R3 protein [9] = biological target: T1, human MSLN-R3 protein; assay: ELISA on coated antigen, antibody 0.01 nM
human MSLN-R3 protein [10] = biological target: T1, human MSLN-R3 protein; assay: ELISA on coated antigen, antibody 0.01 nM; remark: listed apart in the source
human MSLN-R3 protein [11] = biological target: T1, human MSLN-R3 protein; assay: ELISA on coated antigen, antibody 0.001 nM
human MSLN-R3 protein [12] = biological target: T1, human MSLN-R3 protein; assay: ELISA on coated antigen, antibody 0.001 nM; remark: listed apart in the source
human MSLN-R3 protein [13] = biological target: T1, human MSLN-R3 protein; assay: ELISA on coated antigen, antibody 0.0001 nM
human MSLN-R3 protein [14] = biological target: T1, human MSLN-R3 protein; assay: ELISA on coated antigen, antibody 0.0001 nM; remark: listed apart in the source
[15] = biological target: T2, human MSLN-hFc protein (Acro, Cat. No. MSN-H5253) (human, UniProt Q13421 296-580); assay: ELISA on coated antigen, antibody 1 nM
T2 construct: the method names the coated protein as human MSLN-hFc (Acro); also called human MSLN full-length protein
T2 sequence (Q13421 other isoform, or with tags, fused parts or gaps limits assumed): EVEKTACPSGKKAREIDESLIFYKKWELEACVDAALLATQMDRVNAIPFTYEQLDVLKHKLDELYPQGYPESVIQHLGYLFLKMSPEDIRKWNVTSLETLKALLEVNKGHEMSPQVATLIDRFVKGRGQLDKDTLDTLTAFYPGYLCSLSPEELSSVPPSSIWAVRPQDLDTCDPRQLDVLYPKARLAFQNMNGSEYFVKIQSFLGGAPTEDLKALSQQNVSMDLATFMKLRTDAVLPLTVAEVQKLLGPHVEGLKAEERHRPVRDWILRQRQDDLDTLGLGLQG

[16] = biological target: T2, human MSLN-hFc protein (Acro, Cat. No. …); assay: ELISA on coated antigen, antibody 10 nM
[17] = biological target: T2, human MSLN-hFc protein (Acro, Cat. No. …); assay: ELISA on coated antigen, antibody 0.1 nM
[18] = biological target: T2, human MSLN-hFc protein (Acro, Cat. No. …); assay: ELISA on coated antigen, antibody 100 nM
[19] = biological target: T2, human MSLN-hFc protein (Acro, Cat. No. …); assay: ELISA on coated antigen, antibody 0.01 nM
[20] = biological target: T2, human MSLN-hFc protein (Acro, Cat. No. …); assay: ELISA on coated antigen, antibody 0.001 nM
[21] = biological target: T2, human MSLN-hFc protein (Acro, Cat. No. …); assay: ELISA on coated antigen, antibody 0.0001 nM

T1 sequence (Q13421 495-606, form in doubt): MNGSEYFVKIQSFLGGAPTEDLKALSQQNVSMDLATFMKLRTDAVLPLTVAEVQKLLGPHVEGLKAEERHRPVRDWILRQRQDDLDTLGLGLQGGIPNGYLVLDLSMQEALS

| OD450 (human MSLN-R3 protein [2]) [OD450] | OD450 (human MSLN-R3 protein [4]) [OD450] | OD450 (human MSLN-R3 protein [7]) [OD450] | OD450 (human MSLN-R3 protein [8]) [OD450] | OD450 (human MSLN-R3 protein [10]) [OD450] | OD450 (human MSLN-R3 protein [12]) [OD450] | OD450 (human MSLN-R3 protein [14]) [OD450] | OD450 [15] [OD450] | OD450 [16] [OD450] | OD450 [17] [OD450] | OD450 [18] [OD450] | OD450 [19] [OD450] | OD450 [20] [OD450] | OD450 [21] [OD450] | Binder | further results |
| --- | --- | --- | --- | --- | --- | --- | --- | --- | --- | --- | --- | --- | --- | --- | --- |
| 0.06 | 0.78 | 0.04 | 0.98 | 0.04 | 0.04 | 0.05 | – | – | – | – | – | – | – | Tab110 (scFv, not shown: small tags and cut ends, also called YP218 VH-(G4S)3-VL-his antibody; positive control) scFv: QQQLEESGGGLVKPEGSLTLTCKASGFDLGFYFYACWVRQAPGKGLEWIACIYTAGSGSTYYASWAKGRFTISKASSTTVTLQMTSLAAADTATYFCARSTANTRSTYYLNLWGPGTLVTVSSGGGGSGGGGSGGGGSDVVMTQTPASVSEPVGGTVTIKCQASQRISSYLSWYQQKPGQRPKLLIFGASTLASGVPSRFKGSGSGTEYTLTISDLECADAATYYCQSYAYFDSNNWHAFGGGTEVVV | OD450 (human MSLN-R3 protein [1]): 0.06 OD450; OD450 (human MSLN-R3 protein [3]): 0.78 OD450; OD450 (human MSLN-R3 protein [5]): 0.04 OD450; OD450 (human MSLN-R3 protein [6]): 0.98 OD450; OD450 (human MSLN-R3 protein [9]): 0.04 OD450; OD450 (human MSLN-R3 protein [11]): 0.04 OD450; OD450 (human MSLN-R3 protein [13]): 0.05 OD450 |
| 0.42 | 1.62 | 0.06 | 1.9 | 0.04 | 0.04 | 0.04 | 0.4 | 2.07 | 0.08 | 2.91 | 0.05 | 0.05 | 0.05 | F7.33.24-H2 (scFv, not shown: small tags and cut ends, also called S009-F7.33.24 humanized antibody VH1 + VL2) scFv: EVQLVQSGAEVKKPGASVKVSCKASGYTFTSYWMHWVRQAPGQRLEWMGNVNPSNGGSNYNEKFKNRVTITVDKSASTAYMELSSLRSEDTAVYYCAPHYIGSRPGFAYWGQGTLVTVSSGGGGSGGGGSGGGGSDIVMTQTPLSLSVTPGQPASISCKASQNVGTNIAWYLQKPGQSPQALIYSASYRYSGVPDRFSGSGSGTDFTLKISRVEAEDVGVYYCQQYNSYPLTFGGGTKVEIK | – |
| 0.39 | 1.53 | 0.06 | 1.92 | 0.04 | 0.04 | 0.04 | 0.33 | 1.91 | 0.07 | 2.85 | 0.04 | 0.05 | 0.05 | F7.33.24-H5 (scFv, not shown: small tags and cut ends, also called S009-F7.33.24 humanized antibody VH1a + VL2) scFv: EVQLVQSGAEVKKPGASVKVSCKASGYTFTSYWMHWVRQAPGQRLEWMGNVNPSSGGSNYNEKFKNRVTITVDKSASTAYMELSSLRSEDTAVYYCAPHYIGSRPGFAYWGQGTLVTVSSGGGGSGGGGSGGGGSDIVMTQTPLSLSVTPGQPASISCKASQNVGTNIAWYLQKPGQSPQALIYSASYRYSGVPDRFSGSGSGTDFTLKISRVEAEDVGVYYCQQYNSYPLTFGGGTKVEIK | – |
| 0.89 | 1.86 | 0.13 | 1.91 | 0.04 | 0.04 | 0.04 | 0.91 | 2.58 | 0.13 | 2.93 | 0.06 | 0.05 | 0.05 | F7.33.24-H3 (scFv, not shown: small tags and cut ends, also called S009-F7.33.24 humanized antibody VH1 + VL3) scFv: EVQLVQSGAEVKKPGASVKVSCKASGYTFTSYWMHWVRQAPGQRLEWMGNVNPSNGGSNYNEKFKNRVTITVDKSASTAYMELSSLRSEDTAVYYCAPHYIGSRPGFAYWGQGTLVTVSSGGGGSGGGGSGGGGSDIVMTQTPLSLSVTPGQPASISCKASQNVGTNIAWYQQKPGQSPQALIYSASYRYSGVPDRFSGSGSGTDFTLKISRVEAEDVGVYYCQQYNSYPLTFGGGTKVEIK | – |
| 0.51 | 1.88 | 0.09 | 2.1 | 0.05 | 0.05 | 0.05 | – | – | – | – | – | – | – | Tab111 (scFv, not shown: small tags and cut ends, also called YP218 VL-(G4S)3-VH-his antibody; positive control) scFv: DVVMTQTPASVSEPVGGTVTIKCQASQRISSYLSWYQQKPGQRPKLLIFGASTLASGVPSRFKGSGSGTEYTLTISDLECADAATYYCQSYAYFDSNNWHAFGGGTEVVVGGGGSGGGGSGGGGSQQQLEESGGGLVKPEGSLTLTCKASGFDLGFYFYACWVRQAPGKGLEWIACIYTAGSGSTYYASWAKGRFTISKASSTTVTLQMTSLAAADTATYFCARSTANTRSTYYLNLWGPGTLVTVSS | OD450 (human MSLN-R3 protein [1]): 0.51 OD450; OD450 (human MSLN-R3 protein [3]): 1.88 OD450; OD450 (human MSLN-R3 protein [5]): 0.09 OD450; OD450 (human MSLN-R3 protein [6]): 2.1 OD450; OD450 (human MSLN-R3 protein [9]): 0.05 OD450; OD450 (human MSLN-R3 protein [11]): 0.05 OD450; OD450 (human MSLN-R3 protein [13]): 0.05 OD450 |
| 0.52 | 1.61 | 0.08 | 1.93 | 0.04 | 0.04 | 0.04 | 0.59 | 2.53 | 0.1 | 2.9 | 0.05 | 0.04 | 0.05 | F7.33.24-H1 (scFv, not shown: small tags and cut ends, also called S009-F7.33.24 humanized antibody VH1 + VL1) scFv: EVQLVQSGAEVKKPGASVKVSCKASGYTFTSYWMHWVRQAPGQRLEWMGNVNPSNGGSNYNEKFKNRVTITVDKSASTAYMELSSLRSEDTAVYYCAPHYIGSRPGFAYWGQGTLVTVSSGGGGSGGGGSGGGGSDIVMTQSPDSLAVSLGERATINCKASQNVGTNIAWYQQKPGQSPKALIYSASYRYSGVPDRFSGSGSGTDFTLTISSLQAEDVAVYYCQQYNSYPLTFGGGTKVEIK | – |
| 0.55 | 1.85 | 0.08 | 2.26 | 0.04 | 0.05 | 0.05 | 0.51 | 2.28 | 0.09 | 3.03 | 0.05 | 0.04 | 0.04 | F7.33.24-H10 (scFv, not shown: small tags and cut ends, also called S009-F7.33.24 humanized antibody VH2a + VL1) scFv: EVQLVQSGAEVKKPGASVKVSCKASGYTFTSYWMHWVRQAPGQGLEWMGNVNPSNAGSNYNEKFKNRVTITVDKSASTAYMELSSLRSEDTAVYYCAPHYIGSRPGFAYWGQGTLVTVSSGGGGSGGGGSGGGGSDIVMTQSPDSLAVSLGERATINCKASQNVGTNIAWYQQKPGQSPKALIYSASYRYSGVPDRFSGSGSGTDFTLTISSLQAEDVAVYYCQQYNSYPLTFGGGTKVEIK | – |
| 0.45 | 1.64 | 0.07 | 1.95 | 0.04 | 0.04 | 0.04 | 0.45 | 2.21 | 0.08 | 2.95 | 0.07 | 0.05 | 0.05 | F7.33.24-H4 (scFv, not shown: small tags and cut ends, also called S009-F7.33.24 humanized antibody VH1a + VL1) scFv: EVQLVQSGAEVKKPGASVKVSCKASGYTFTSYWMHWVRQAPGQRLEWMGNVNPSSGGSNYNEKFKNRVTITVDKSASTAYMELSSLRSEDTAVYYCAPHYIGSRPGFAYWGQGTLVTVSSGGGGSGGGGSGGGGSDIVMTQSPDSLAVSLGERATINCKASQNVGTNIAWYQQKPGQSPKALIYSASYRYSGVPDRFSGSGSGTDFTLTISSLQAEDVAVYYCQQYNSYPLTFGGGTKVEIK | – |
| 0.33 | 1.52 | 0.06 | 1.95 | 0.04 | 0.04 | 0.04 | 0.48 | 2.32 | 0.1 | 2.79 | 0.05 | 0.06 | 0.05 | F7.33.24-H7 (scFv, not shown: small tags and cut ends, also called S009-F7.33.24 humanized antibody VH2 + VL1) scFv: EVQLVQSGAEVKKPGASVKVSCKASGYTFTSYWMHWVRQAPGQGLEWMGNVNPSNGGSNYNEKFKNRVTITVDKSASTAYMELSSLRSEDTAVYYCAPHYIGSRPGFAYWGQGTLVTVSSGGGGSGGGGSGGGGSDIVMTQSPDSLAVSLGERATINCKASQNVGTNIAWYQQKPGQSPKALIYSASYRYSGVPDRFSGSGSGTDFTLTISSLQAEDVAVYYCQQYNSYPLTFGGGTKVEIK | – |

— patent US20250250357A1 (NANJING ZAIMING PHARMACEUTICAL, published 2025)
